Like-named read-outs stand apart in the source and are kept apart here. Ends that are not written are not given here.

This passage reports Kd results from patent publication US20250326807A1 (published 2025).

Experiment [1] deals with T1, Recombinantly expressed fused calprotectin (His6-linker-S100A9-linker-S100A8), product code B-RCAL, BÜHLMANN … (human, UniProt P06702 1-114; P05109 1-93).
T1 chain: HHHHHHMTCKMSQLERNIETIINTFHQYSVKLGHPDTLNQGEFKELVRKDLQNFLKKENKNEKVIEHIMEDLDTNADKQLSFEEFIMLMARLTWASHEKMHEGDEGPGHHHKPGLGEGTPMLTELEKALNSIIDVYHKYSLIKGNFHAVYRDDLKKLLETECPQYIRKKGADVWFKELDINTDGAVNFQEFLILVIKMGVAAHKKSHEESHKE
As to the kind of experiment: fluorescence polarization. In general terms: Polarisation of emitted light reports the rotation of a fluorescent probe.

Experiment [2] addresses T1, Recombinantly expressed fused …. Put plainly: fluorescence polarization.
Experiment [3] shares this target.
For experiment [4] the target is unchanged. Put plainly: fluorescence polarization.
Experiment [5] shares this target. Put plainly: fluorescence polarization.
The target in the next experiment is Y16 D-Ala. As to the kind of experiment: SPR.
The next experiment deals with F8 β-Ala. As to the kind of experiment: SPR.
A further experiment has as its target M10 D-Ala. As to the kind of experiment: SPR.
For another experiment, the target named is Q12 β-Ala. Put plainly: SPR. (In general: Surface plasmon resonance follows binding to a sensor surface in real time, without labels.)
In a further experiment the target is M10 β-Ala. Put plainly: SPR.
Another experiment has as its target F11 β-Ala. Put plainly: SPR.
In the next experiment the target is F11 D-Ala. As to the kind of experiment: SPR.
The next experiment concerns the target Q12 D-Ala. Put plainly: SPR.
The target in a further experiment is F8 D-Ala. As to the kind of experiment: SPR.
For the next experiment, the target named is P9 D-Ala. Put plainly: SPR.
For a further experiment, the target named is Y16 β-Ala. As to the kind of experiment: SPR.
Another experiment has as its target P9 β-Ala. Put plainly: SPR.
The target of experiment [6] is T1, Recombinantly expressed fused …. As to the kind of experiment: fluorescence polarization.

B1: GCDLAHQPCPLYKCTKCP (peptide)
peptide: GCDLAHQPCPLYKCTKCP
modifications: not fully specified; cross-linked between cysteines (linker not named); N-terminal 5(6)-carboxyfluorescein; synthesised on rink amide AM resin
B1: in experiment [1], the Kd (as a rule, the equilibrium constant for the complex coming apart) is 10 nM.

B2: VCQQTASRCPVWECQRCP (peptide)
peptide: VCQQTASRCPVWECQRCP
modifications: not fully specified; cross-linked between cysteines (linker not named); N-terminal 5(6)-carboxyfluorescein; synthesised on rink amide AM resin
Turning to B2, the Kd in experiment [2] is 55 nM.

B3: Linear peptide 3 (RSPESVAFPMFQSHWYSG), all cysteines replaced by serines (peptide)
peptide: RSPESVAFPMFQSHWYSG-NH2
modifications: also: N-terminal 5(6)-carboxyfluorescein only in the fluorescence polarization assay version
As to B3, the Kd in experiment [3] stood at 25.5 nM.

B4: ACRTCPLFTCPSCG (peptide)
peptide: ACRTCPLFTCPSCG
modifications: not fully specified; cross-linked between cysteines (linker not named); N-terminal 5(6)-carboxyfluorescein; synthesised on rink amide AM resin
Take B4: the Kd in [4] was found to be 89 nM.

B5: SCQCPWDLFSQHSLSDCCD (peptide)
peptide: SCQCPWDLFSQHSLSDCCD
modifications: not fully specified; cross-linked between cysteines (linker not named); N-terminal 5(6)-carboxyfluorescein; synthesised on rink amide AM resin
With B5, the Kd in experiment [1] worked out at 25 nM.

B6: CTQSPCPLYDSHQCSCK (peptide)
peptide: CTQSPCPLYDSHQCSCK
modifications: not fully specified; cross-linked between cysteines (linker not named); N-terminal 5(6)-carboxyfluorescein; synthesised on rink amide AM resin
Take B6: the Kd in experiment [5] came out at 38 nM.

B7: VCPCPLFRAHGCSRFSCQ (peptide)
peptide: VCPCPLFRAHGCSRFSCQ
modifications: not fully specified; cross-linked between cysteines (linker not named); N-terminal 5(6)-carboxyfluorescein; synthesised on rink amide AM resin
Consider B7, for which the Kd in [5] worked out at 22 nM.

B8: calprotectin (other)
chain: HHHHHHMTCKMSQLERNIETIINTFHQYSVKLGHPDTLNQGEFKELVRKDLQNFLKKENKNEKVIEHIMEDLDTNADKQLSFEEFIMLMARLTWASHEKMHEGDEGPGHHHKPGLGEGTPMLTELEKALNSIIDVYHKYSLIKGNFHAVYRDDLKKLLETECPQYIRKKGADVWFKELDINTDGAVNFQEFLILVIKMGVAAHKKSHEESHKE
On to B8, for which the Kd with Y16 D-Ala, with F8 β-Ala, with M10 D-Ala, in the experiment with Q12 β-Ala, with M10 β-Ala and in the experiment with F11 β-Ala was above 10000 nM each time. Also, the Kd with F11 D-Ala, with Q12 D-Ala, with F8 D-Ala, with P9 D-Ala, in the experiment with Y16 β-Ala and in the experiment with P9 β-Ala was above 10000 nM each time.

B9: Peptide 3 (RCPECVAFPMFQCHWYCG), phage display derived, cross-linked between cysteines (peptide)
peptide: RCPECVAFPMFQCHWYCG
modifications: not fully specified; cysteines cross-linked by a chemical linker (linker and isomer not named); N-terminal 5(6)-carboxyfluorescein; synthesised on rink amide AM resin
B9: in experiment [6], the Kd was 23 nM.

B10: TCPLNRTQCPLYACTTCP (peptide)
peptide: TCPLNRTQCPLYACTTCP
modifications: not fully specified; cross-linked between cysteines (linker not named); N-terminal 5(6)-carboxyfluorescein; synthesised on rink amide AM resin
Turning to B10, the Kd in [2] is 34 nM.
